In paper PMC7095019:

Biological target: H1 A/New Caledonia/20/1999 haemagglutinin, wild-type trimeric protein (influenza A virus A/New Caledonia/20/1999 (H1N1)) (UniProt Q6WG00)
Assay: ELISA

| Substance | ELISA endpoint dilution titre |
| --- | --- |
| CR6261 inferred germline antibody, germline heavy and germline light chain, soluble IgG | > 100 µg/mL |
| CR6261 somatic (mature) antibody, somatic heavy and somatic light chain, soluble IgG | 0.00133 µg/mL |
